# According to PMC2756588:
# T1: Fus1, P11710
# T1 sequence (P11710 432-512, looked up): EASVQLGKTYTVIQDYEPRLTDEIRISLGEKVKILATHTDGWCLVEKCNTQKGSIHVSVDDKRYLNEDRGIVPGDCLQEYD
# T2: Sla1-2, P32790
# T2 sequence (P32790 60-140, looked up): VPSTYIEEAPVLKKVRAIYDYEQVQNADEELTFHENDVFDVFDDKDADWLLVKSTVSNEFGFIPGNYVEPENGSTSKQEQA
# T3: Cyk3, Q07533
# T3 sequence (Q07533 1-83, looked up): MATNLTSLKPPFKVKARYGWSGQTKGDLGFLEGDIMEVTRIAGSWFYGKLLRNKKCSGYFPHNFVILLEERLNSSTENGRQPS
# T4: Lsb1, P53281
# T4 sequence (P53281 45-122, looked up): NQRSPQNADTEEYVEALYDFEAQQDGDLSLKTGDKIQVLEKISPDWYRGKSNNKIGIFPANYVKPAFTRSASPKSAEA
# T5: Cdc25, P04821
# T5 sequence (P04821 50-136, looked up): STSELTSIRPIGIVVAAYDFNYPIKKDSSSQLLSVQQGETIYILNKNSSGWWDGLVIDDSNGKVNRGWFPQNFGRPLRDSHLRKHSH
# T6: Bud14, P27637
# T6 sequence (P27637 247-328, looked up): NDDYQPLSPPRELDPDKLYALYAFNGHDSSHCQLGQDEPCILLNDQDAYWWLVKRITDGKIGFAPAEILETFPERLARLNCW
# T7: Abp1, P15891
# T7 sequence (P15891 535-592, looked up): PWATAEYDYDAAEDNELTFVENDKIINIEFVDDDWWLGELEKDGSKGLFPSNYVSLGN
# T8: Pex13, P80667
# T8 sequence (P80667 295-386, looked up): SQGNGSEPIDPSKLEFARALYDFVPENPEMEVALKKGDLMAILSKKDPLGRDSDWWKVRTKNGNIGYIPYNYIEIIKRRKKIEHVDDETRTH
# T9: Pin3, Q06449
# T9 sequence (Q06449 53-122, looked up): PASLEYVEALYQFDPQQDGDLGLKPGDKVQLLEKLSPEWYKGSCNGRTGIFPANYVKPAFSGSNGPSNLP
# T10: Lsb3, P43603
# T10 sequence (P43603 385-451, looked up): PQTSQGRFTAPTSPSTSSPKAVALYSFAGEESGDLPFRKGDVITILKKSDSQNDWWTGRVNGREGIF
# T11: Lsb4, P32793
# T11 sequence (P32793 402-468, looked up): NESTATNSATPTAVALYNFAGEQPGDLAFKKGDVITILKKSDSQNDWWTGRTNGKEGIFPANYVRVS
# T12: Bzz1-1, P38822
# T12 sequence (P38822 478-572, looked up): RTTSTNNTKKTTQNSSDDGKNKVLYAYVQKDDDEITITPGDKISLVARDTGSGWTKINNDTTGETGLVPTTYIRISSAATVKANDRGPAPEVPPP
# T13: Myo5, Q04439
# T13 sequence (Q04439 1072-1160, looked up): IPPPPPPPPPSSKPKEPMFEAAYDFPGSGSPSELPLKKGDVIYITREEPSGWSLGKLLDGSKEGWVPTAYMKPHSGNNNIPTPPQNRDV
# T14: Bzz1-2, P38822
# T14 sequence (P38822 568-633, looked up): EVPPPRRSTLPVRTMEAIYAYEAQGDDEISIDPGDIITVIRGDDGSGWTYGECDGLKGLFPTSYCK
# T15: Nbp2, Q12163
# T15 sequence (Q12163 103-180, looked up): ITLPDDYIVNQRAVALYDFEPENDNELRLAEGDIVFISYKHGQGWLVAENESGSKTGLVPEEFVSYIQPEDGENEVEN
# T16: Boi2, P39969
# T16 sequence (P39969 32-116, looked up): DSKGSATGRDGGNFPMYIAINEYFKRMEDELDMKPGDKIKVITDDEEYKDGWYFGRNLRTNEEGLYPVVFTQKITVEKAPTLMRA
# T17: Sla1-3, P32790
# T17 sequence (P32790 344-424, looked up): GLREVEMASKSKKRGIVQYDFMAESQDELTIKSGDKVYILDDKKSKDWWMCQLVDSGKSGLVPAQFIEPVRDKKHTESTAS
# T18: Hse1, P38753
# T18 sequence (P38753 208-285, looked up): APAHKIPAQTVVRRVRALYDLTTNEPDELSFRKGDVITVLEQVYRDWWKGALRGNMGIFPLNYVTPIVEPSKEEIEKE
# T19: Bbc1, P47068
# T19 sequence (P47068 1-78, looked up): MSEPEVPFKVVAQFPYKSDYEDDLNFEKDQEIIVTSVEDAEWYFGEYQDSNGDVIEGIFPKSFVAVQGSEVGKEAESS
# T20: Boi1, P38041
# T20 sequence (P38041 1-86, looked up): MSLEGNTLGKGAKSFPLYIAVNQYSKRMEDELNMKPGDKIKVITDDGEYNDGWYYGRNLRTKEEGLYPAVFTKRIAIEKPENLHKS
# T21: Hof1, Q05080
# T21 sequence (Q05080 590-669, looked up): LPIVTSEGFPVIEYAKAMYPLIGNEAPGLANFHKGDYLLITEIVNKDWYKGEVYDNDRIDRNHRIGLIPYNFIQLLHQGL
# B1: unnamed (peptide)
# chain: DGNEEKPLLPTRPNK
# B2: unnamed (peptide)
# chain: NILKRRPLKLEAPSK
# B3: unnamed (peptide)
# chain: NNNKMRPHLPPLSSG
# B4: unnamed (peptide)
# chain: FSRRQSMDIPSKNRN
# B5: unnamed (peptide)
# chain: TYNRTAFQIPGDQSI
# B6: unnamed (peptide)
# chain: NMLSRPRLAKLPSIR
# Molecular target: T1, Fus1, P11710
# Assay: SPOT array
# Settings: median of control spots 1200
row,SPOT intensity,Binder
1,0,B1
2,37,B2
3,1,B3
4,0,B4
5,0,B5
6,12,B6

# Molecular target: T2, Sla1-2, P32790
# Assay: SPOT array
# Settings: median of control spots 712
row,SPOT intensity,Binder
1,0,B1
2,0,B2
3,0,B3
4,27,B4
5,0,B5
6,1,B6

# Molecular target: Bem1-1, P29366
# Sequence (P29366 55-141): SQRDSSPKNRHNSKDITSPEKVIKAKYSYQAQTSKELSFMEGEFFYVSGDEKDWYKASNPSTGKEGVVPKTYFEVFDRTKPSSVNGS
# Assay: SPOT array
# Settings: median of control spots 4282
row,SPOT intensity,Binder
1,0,B1
2,0,B2
3,1,B3
4,7,B4
5,0,B5
6,0,B6

# Molecular target: T3, Cyk3, Q07533
# Assay: SPOT array
# Settings: median of control spots 1451
row,SPOT intensity,Binder
1,0,B1
2,4,B2
3,0,B3
4,0,B4
5,0,B5
6,1,B6

# Molecular target: T4, Lsb1, P53281
# Assay: SPOT array
# Settings: median of control spots 388
row,SPOT intensity,Binder
1,174,B1
2,2,B2
3,81,B3
4,200,B4
5,705,B5
6,59,B6

# Molecular target: T5, Cdc25, P04821
# Assay: SPOT array
# Settings: median of control spots 969
row,SPOT intensity,Binder
1,0,B1
2,297,B2
3,22,B3
4,16,B4
5,0,B5
6,108,B6

# Molecular target: T6, Bud14, P27637
# Assay: SPOT array
# Settings: median of control spots 956
row,SPOT intensity,Binder
1,0,B1
2,19,B2
3,35,B3
4,6,B4
5,0,B5
6,33,B6

# Molecular target: T7, Abp1, P15891
# Assay: SPOT array
# Settings: median of control spots 935
row,SPOT intensity,Binder
1,0,B1
2,92,B2
3,59,B3
4,127,B4
5,0,B5
6,42,B6

# Molecular target: T8, Pex13, P80667
# Assay: SPOT array
# Settings: median of control spots 1341
row,SPOT intensity,Binder
1,81,B1
2,2,B2
3,84,B3
4,61,B4
5,0,B5
6,21,B6

# Molecular target: T9, Pin3, Q06449
# Assay: SPOT array
# Settings: median of control spots 2171
row,SPOT intensity,Binder
1,0,B1
2,1,B2
3,85,B3
4,195,B4
5,45,B5
6,40,B6

# Molecular target: Sho1, P40073
# Sequence (P40073 287-367): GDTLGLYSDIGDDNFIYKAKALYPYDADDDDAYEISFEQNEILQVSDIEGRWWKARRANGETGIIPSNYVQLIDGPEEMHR
# Assay: SPOT array
# Settings: median of control spots 1148
row,SPOT intensity,Binder
1,0,B1
2,65,B2
3,61,B3
4,60,B4
5,0,B5
6,38,B6

# Molecular target: T10, Lsb3, P43603
# Assay: SPOT array
# Settings: median of control spots 406
row,SPOT intensity,Binder
1,493,B1
2,0,B2
3,1,B3
4,22,B4
5,0,B5
6,2,B6

# Molecular target: GST
# Assay: SPOT array
# Settings: median of control spots 978
row,SPOT intensity,Binder
1,0,B1
2,0,B2
3,0,B3
4,1,B4
5,0,B5
6,0,B6

# Molecular target: Myo3, P36006
# Assay: SPOT array
# Settings: median of control spots 468
row,SPOT intensity,Binder
1,0,B1
2,4,B2
3,18,B3
4,44,B4
5,0,B5
6,9,B6

# Molecular target: T11, Lsb4, P32793
# Assay: SPOT array
# Settings: median of control spots 397
row,SPOT intensity,Binder
1,281,B1
2,1,B2
3,22,B3
4,84,B4
5,0,B5
6,10,B6

# Molecular target: T12, Bzz1-1, P38822
# Assay: SPOT array
# Settings: median of control spots 4446
row,SPOT intensity,Binder
1,0,B1
2,2,B2
3,1,B3
4,1,B4
5,2,B5
6,0,B6

# Molecular target: T13, Myo5, Q04439
# Assay: SPOT array
# Settings: median of control spots 471
row,SPOT intensity,Binder
1,0,B1
2,0,B2
3,7,B3
4,83,B4
5,1,B5
6,11,B6

# Molecular target: T14, Bzz1-2, P38822
# Assay: SPOT array
# Settings: median of control spots 4538
row,SPOT intensity,Binder
1,0,B1
2,18,B2
3,62,B3
4,26,B4
5,0,B5
6,11,B6

# Molecular target: Rvs167, P39743
# Sequence (P39743 419-482): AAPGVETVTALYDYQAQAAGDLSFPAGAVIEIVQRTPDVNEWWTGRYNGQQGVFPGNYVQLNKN
# Assay: SPOT array
# Settings: median of control spots 2707
row,SPOT intensity,Binder
1,263,B1
2,0,B2
3,0,B3
4,0,B4
5,0,B5
6,0,B6

# Molecular target: T15, Nbp2, Q12163
# Assay: SPOT array
# Settings: median of control spots 357
row,SPOT intensity,Binder
1,0,B1
2,0,B2
3,12,B3
4,2,B4
5,0,B5
6,0,B6

# Molecular target: T16, Boi2, P39969
# Assay: SPOT array
# Settings: median of control spots 1161
row,SPOT intensity,Binder
1,0,B1
2,3,B2
3,0,B3
4,1,B4
5,0,B5
6,2,B6

# Molecular target: T17, Sla1-3, P32790
# Assay: SPOT array
# Settings: median of control spots 5475
row,SPOT intensity,Binder
1,5,B1
2,28,B2
3,0,B3
4,1,B4
5,1,B5
6,25,B6

# Molecular target: T18, Hse1, P38753
# Assay: SPOT array
# Settings: median of control spots 1727
row,SPOT intensity,Binder
1,1,B1
2,302,B2
3,24,B3
4,8,B4
5,0,B5
6,216,B6

# Molecular target: Bem1-2, P29366
# Sequence (P29366 139-227): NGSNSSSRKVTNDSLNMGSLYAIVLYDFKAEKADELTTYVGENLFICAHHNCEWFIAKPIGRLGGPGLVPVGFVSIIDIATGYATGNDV
# Assay: SPOT array
# Settings: median of control spots 4347
row,SPOT intensity,Binder
1,0,B1
2,0,B2
3,16,B3
4,0,B4
5,0,B5
6,18,B6

# Molecular target: T19, Bbc1, P47068
# Assay: SPOT array
# Settings: median of control spots 796
row,SPOT intensity,Binder
1,43,B1
2,272,B2
3,0,B3
4,7,B4
5,0,B5
6,54,B6

# Molecular target: T20, Boi1, P38041
# Assay: SPOT array
# Settings: median of control spots 1162
row,SPOT intensity,Binder
1,0,B1
2,7,B2
3,3,B3
4,0,B4
5,1,B5
6,5,B6

# Molecular target: T21, Hof1, Q05080
# Assay: SPOT array
# Settings: median of control spots 4086
row,SPOT intensity,Binder
1,23,B1
2,14,B2
3,1460,B3
4,0,B4
5,0,B5
6,178,B6
